Molecular target: T1, EsCas13d, nuclease-dead (Eubacterium siraeum, UniProt B0MS50, R295A;H300A;R849A;H854A)
T1 sequence: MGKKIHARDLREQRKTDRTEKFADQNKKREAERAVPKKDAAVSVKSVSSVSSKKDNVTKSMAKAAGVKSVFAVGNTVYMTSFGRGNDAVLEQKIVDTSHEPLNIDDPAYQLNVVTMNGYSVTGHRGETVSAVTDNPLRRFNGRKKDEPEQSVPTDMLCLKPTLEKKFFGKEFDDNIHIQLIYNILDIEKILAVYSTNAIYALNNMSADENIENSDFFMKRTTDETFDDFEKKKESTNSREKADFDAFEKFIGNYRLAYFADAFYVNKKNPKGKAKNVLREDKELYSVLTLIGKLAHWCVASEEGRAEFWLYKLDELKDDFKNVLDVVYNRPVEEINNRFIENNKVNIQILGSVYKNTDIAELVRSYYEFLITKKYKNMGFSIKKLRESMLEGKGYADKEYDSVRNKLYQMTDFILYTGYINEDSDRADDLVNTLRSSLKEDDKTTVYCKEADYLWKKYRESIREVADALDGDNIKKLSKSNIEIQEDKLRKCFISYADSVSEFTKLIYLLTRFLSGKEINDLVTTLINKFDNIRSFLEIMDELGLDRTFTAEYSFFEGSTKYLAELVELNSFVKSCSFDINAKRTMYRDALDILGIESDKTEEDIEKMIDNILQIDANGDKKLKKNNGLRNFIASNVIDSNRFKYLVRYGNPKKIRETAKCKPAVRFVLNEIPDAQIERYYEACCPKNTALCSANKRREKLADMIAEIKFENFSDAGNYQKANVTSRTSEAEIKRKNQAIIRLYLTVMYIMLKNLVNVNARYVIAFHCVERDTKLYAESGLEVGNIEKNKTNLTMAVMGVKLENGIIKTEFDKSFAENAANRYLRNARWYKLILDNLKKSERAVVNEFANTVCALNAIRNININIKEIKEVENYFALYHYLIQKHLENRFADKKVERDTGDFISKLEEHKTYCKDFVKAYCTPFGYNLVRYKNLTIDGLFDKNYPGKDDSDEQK
Experiment: crRNA (strand 1, pre-loaded); Mg2+; 40 mM Tris-HCl pH 7.5, 150 mM NaCl, 6 mM MgCl2, 1 mM DTT, 0.1% Tween-20, 0.2 mg/ml BSA; 25 C; 10 min per concentration, then washed
Details: tags: His6-TwinStrep-SUMO cleaved; N-terminal SNAP kept (SNAP-Surface 488); label: 3' end held by stalled T7 RNA polymerase

B1: target 1 insA 3' of 21,insA 3' of 3 (mixed)
RNA 1: CACCCGUGCAAAAAUGCAGGGGUCUAAAACUGAGCGGAUAACCUCUCUAUGG
RNA 2: GGGAAUGGAUCCACAUCUACGAAUUCGUACCAAUAGAGAGGUUAUCCGCUACACCGAGAUCGGAAGAGCACACGU
B1 showed a Kd of 12.2 ± 0.6 nM.

B2: target 1 C6G,A16G (mixed)
RNA 1: CACCCGUGCAAAAAUGCAGGGGUCUAAAACUGAGCGGAUAACCUCUCUAUGG
RNA 2: GGGAAUGGAUCCACAUCUACGAAUUCGUACCAUAGGGAGGUUAUCGGCUCACCGAGAUCGGAAGAGCACACGU
In the case of B2, the Kd is reported as 31.8 ± 1.6 nM.

B3: target 1 insU 3' of 21 (mixed)
RNA 1: CACCCGUGCAAAAAUGCAGGGGUCUAAAACUGAGCGGAUAACCUCUCUAUGG
RNA 2: GGGAAUGGAUCCACAUCUACGAAUUCGUACCUAUAGAGAGGUUAUCCGCUCACCGAGAUCGGAAGAGCACACGU
B3 was tested, and the Kd was 24 ± 1.6 nM.

B4: target 1 C7G,G15A (mixed)
RNA 1: CACCCGUGCAAAAAUGCAGGGGUCUAAAACUGAGCGGAUAACCUCUCUAUGG
RNA 2: GGGAAUGGAUCCACAUCUACGAAUUCGUACCAUAGAAAGGUUAUGCGCUCACCGAGAUCGGAAGAGCACACGU
For B4, the Kd was 22.5 ± 1.6 nM.

B5: target 1 U8C,G17C (mixed)
RNA 1: CACCCGUGCAAAAAUGCAGGGGUCUAAAACUGAGCGGAUAACCUCUCUAUGG
RNA 2: GGGAAUGGAUCCACAUCUACGAAUUCGUACCAUACAGAGGUUACCCGCUCACCGAGAUCGGAAGAGCACACGU
B5 was tested, and the Kd was 90 ± 32 nM.

B6: target 1 insU 3' of 15,insC 3' of 13 (mixed)
RNA 1: CACCCGUGCAAAAAUGCAGGGGUCUAAAACUGAGCGGAUAACCUCUCUAUGG
RNA 2: GGGAAUGGAUCCACAUCUACGAAUUCGUACCAUAGAGUAGCGUUAUCCGCUCACCGAGAUCGGAAGAGCACACGU
B6 showed a Kd of 19.3 ± 2.7 nM.

B7: target 1 U3G,C21A (mixed)
RNA 1: CACCCGUGCAAAAAUGCAGGGGUCUAAAACUGAGCGGAUAACCUCUCUAUGG
RNA 2: GGGAAUGGAUCCACAUCUACGAAUUCGUACAAUAGAGAGGUUAUCCGCGCACCGAGAUCGGAAGAGCACACGU
B7 was tested, and the Kd was 41 ± 14 nM.

B8: target 1 C6G,G12C (mixed)
RNA 1: CACCCGUGCAAAAAUGCAGGGGUCUAAAACUGAGCGGAUAACCUCUCUAUGG
RNA 2: GGGAAUGGAUCCACAUCUACGAAUUCGUACCAUAGAGAGCUUAUCGGCUCACCGAGAUCGGAAGAGCACACGU
For B8, the Kd was 15.1 ± 0.7 nM.

B9: target 1 insG 3' of 6,insA 3' of 6 (mixed)
RNA 1: CACCCGUGCAAAAAUGCAGGGGUCUAAAACUGAGCGGAUAACCUCUCUAUGG
RNA 2: GGGAAUGGAUCCACAUCUACGAAUUCGUACCAUAGAGAGGUUAUCCGAGCUCACCGAGAUCGGAAGAGCACACGU
B9 was tested, and the Kd was 10.6 ± 1.1 nM.

B10: target 1 insA 3' of 22,insC 3' of 1 (mixed)
RNA 1: CACCCGUGCAAAAAUGCAGGGGUCUAAAACUGAGCGGAUAACCUCUCUAUGG
RNA 2: GGGAAUGGAUCCACAUCUACGAAUUCGUACACAUAGAGAGGUUAUCCGCUCACCCGAGAUCGGAAGAGCACACGU
Work on B10 yielded a Kd of 12.8 ± 0.8 nM.

B11: target 1 insC 3' of 13,insG 3' of 10 (mixed)
RNA 1: CACCCGUGCAAAAAUGCAGGGGUCUAAAACUGAGCGGAUAACCUCUCUAUGG
RNA 2: GGGAAUGGAUCCACAUCUACGAAUUCGUACCAUAGAGAGCGUUGAUCCGCUCACCGAGAUCGGAAGAGCACACGU
With B11 the Kd was 15.8 ± 1.7 nM.

B12: target 1 complement block 6-10 (mixed)
RNA 1: CACCCGUGCAAAAAUGCAGGGGUCUAAAACUGAGCGGAUAACCUCUCUAUGG
RNA 2: GGGAAUGGAUCCACAUCUACGAAUUCGUACCAUAGAGAGGUAUAGGGCUCACCGAGAUCGGAAGAGCACACGU
B12 gave a Kd of 10.1 ± 0.6 nM.

B13: target 1 U10G,G12A (mixed)
RNA 1: CACCCGUGCAAAAAUGCAGGGGUCUAAAACUGAGCGGAUAACCUCUCUAUGG
RNA 2: GGGAAUGGAUCCACAUCUACGAAUUCGUACCAUAGAGAGAUGAUCCGCUCACCGAGAUCGGAAGAGCACACGU
For B13, the Kd was 32.9 ± 2.7 nM.

B14: target 1 C7U,G12C (mixed)
RNA 1: CACCCGUGCAAAAAUGCAGGGGUCUAAAACUGAGCGGAUAACCUCUCUAUGG
RNA 2: GGGAAUGGAUCCACAUCUACGAAUUCGUACCAUAGAGAGCUUAUUCGCUCACCGAGAUCGGAAGAGCACACGU
In the case of B14, the Kd is reported as 9.7 ± 0.7 nM.

B15: target 1 insA 3' of 17,insU 3' of 4 (mixed)
RNA 1: CACCCGUGCAAAAAUGCAGGGGUCUAAAACUGAGCGGAUAACCUCUCUAUGG
RNA 2: GGGAAUGGAUCCACAUCUACGAAUUCGUACCAUAGAAGAGGUUAUCCGCUUCACCGAGAUCGGAAGAGCACACGU
In the case of B15, the Kd is reported as 44 ± 5 nM.

B16: target 1 C6A,G12A (mixed)
RNA 1: CACCCGUGCAAAAAUGCAGGGGUCUAAAACUGAGCGGAUAACCUCUCUAUGG
RNA 2: GGGAAUGGAUCCACAUCUACGAAUUCGUACCAUAGAGAGAUUAUCAGCUCACCGAGAUCGGAAGAGCACACGU
B16 showed a Kd of 7.07 ± 0.35 nM.

B17: target 1 insA 3' of 22,insA 3' of 2 (mixed)
RNA 1: CACCCGUGCAAAAAUGCAGGGGUCUAAAACUGAGCGGAUAACCUCUCUAUGG
RNA 2: GGGAAUGGAUCCACAUCUACGAAUUCGUACACAUAGAGAGGUUAUCCGCUCAACCGAGAUCGGAAGAGCACACGU
In the case of B17, the Kd is reported as 12.7 ± 0.5 nM.

B18: target 1 insA 3' of 15,insA 3' of 2 (mixed)
RNA 1: CACCCGUGCAAAAAUGCAGGGGUCUAAAACUGAGCGGAUAACCUCUCUAUGG
RNA 2: GGGAAUGGAUCCACAUCUACGAAUUCGUACCAUAGAGAAGGUUAUCCGCUCAACCGAGAUCGGAAGAGCACACGU
Work on B18 yielded a Kd of 6.4 ± 0.4 nM.

B19: target 1 del7,del9 (mixed)
RNA 1: CACCCGUGCAAAAAUGCAGGGGUCUAAAACUGAGCGGAUAACCUCUCUAUGG
RNA 2: GGGAAUGGAUCCACAUCUACGAAUUCGUACCAUAGAGAGGUUUCGCUCACCGAGAUCGGAAGAGCACACGU
B19 showed a Kd of 12.3 ± 0.9 nM.

B20: target 1 C7G,G17U (mixed)
RNA 1: CACCCGUGCAAAAAUGCAGGGGUCUAAAACUGAGCGGAUAACCUCUCUAUGG
RNA 2: GGGAAUGGAUCCACAUCUACGAAUUCGUACCAUAUAGAGGUUAUGCGCUCACCGAGAUCGGAAGAGCACACGU
For B20, the Kd was 35 ± 5 nM.

B21: target 1 insG 3' of 22,insC 3' of 18 (mixed)
RNA 1: CACCCGUGCAAAAAUGCAGGGGUCUAAAACUGAGCGGAUAACCUCUCUAUGG
RNA 2: GGGAAUGGAUCCACAUCUACGAAUUCGUACGCAUACGAGAGGUUAUCCGCUCACCGAGAUCGGAAGAGCACACGU
For B21, the Kd was 73 ± 23 nM.

B22: target 1 insA 3' of 15,insC 3' of 1 (mixed)
RNA 1: CACCCGUGCAAAAAUGCAGGGGUCUAAAACUGAGCGGAUAACCUCUCUAUGG
RNA 2: GGGAAUGGAUCCACAUCUACGAAUUCGUACCAUAGAGAAGGUUAUCCGCUCACCCGAGAUCGGAAGAGCACACGU
B22 was tested, and the Kd was 7.1 ± 0.8 nM.

B23: target 1 insA 3' of 15,insG 3' of 1 (mixed)
RNA 1: CACCCGUGCAAAAAUGCAGGGGUCUAAAACUGAGCGGAUAACCUCUCUAUGG
RNA 2: GGGAAUGGAUCCACAUCUACGAAUUCGUACCAUAGAGAAGGUUAUCCGCUCAGCCGAGAUCGGAAGAGCACACGU
B23 showed a Kd of 5.96 ± 0.32 nM.

B24: target 1 A14G,A16C (mixed)
RNA 1: CACCCGUGCAAAAAUGCAGGGGUCUAAAACUGAGCGGAUAACCUCUCUAUGG
RNA 2: GGGAAUGGAUCCACAUCUACGAAUUCGUACCAUAGCGGGGUUAUCCGCUCACCGAGAUCGGAAGAGCACACGU
Work on B24 yielded a Kd of 67 ± 11 nM.

B25: target 1 C7G,A9U (mixed)
RNA 1: CACCCGUGCAAAAAUGCAGGGGUCUAAAACUGAGCGGAUAACCUCUCUAUGG
RNA 2: GGGAAUGGAUCCACAUCUACGAAUUCGUACCAUAGAGAGGUUUUGCGCUCACCGAGAUCGGAAGAGCACACGU
For B25, the Kd was 7.61 ± 0.27 nM.

B26: target 1 insC 3' of 14,insU 3' of 4 (mixed)
RNA 1: CACCCGUGCAAAAAUGCAGGGGUCUAAAACUGAGCGGAUAACCUCUCUAUGG
RNA 2: GGGAAUGGAUCCACAUCUACGAAUUCGUACCAUAGAGACGGUUAUCCGCUUCACCGAGAUCGGAAGAGCACACGU
B26 showed a Kd of 43 ± 4 nM.

B27: target 1 insA 3' of 4,insU 3' of 1 (mixed)
RNA 1: CACCCGUGCAAAAAUGCAGGGGUCUAAAACUGAGCGGAUAACCUCUCUAUGG
RNA 2: GGGAAUGGAUCCACAUCUACGAAUUCGUACCAUAGAGAGGUUAUCCGCAUCAUCCGAGAUCGGAAGAGCACACGU
With B27 the Kd was 7 ± 0.6 nM.

B28: target 1 insC 3' of 15,insG 3' of 9 (mixed)
RNA 1: CACCCGUGCAAAAAUGCAGGGGUCUAAAACUGAGCGGAUAACCUCUCUAUGG
RNA 2: GGGAAUGGAUCCACAUCUACGAAUUCGUACCAUAGAGCAGGUUAGUCCGCUCACCGAGAUCGGAAGAGCACACGU
Work on B28 yielded a Kd of 20.8 ± 1 nM.

Reference: article PMC10786891, “Massively parallel profiling of RNA-targeting CRISPR-Cas13d”
